Here are results for four molecules from paper PMC4482583, “The Dimerization State of the Mammalian High Mobility Group Protein AT-Hook 2 (HMGA2)” (PLoS ONE, 2015).

One data set addresses T1, HMGA2Δ95–108 (mouse, UniProt P52927 1-94).
T1 construct: also called mutant that lacks the negatively charged C-terminus; source: made by PCR-based site directed mutagenesis, purified as described previously [26]
T1 sequence (looked up): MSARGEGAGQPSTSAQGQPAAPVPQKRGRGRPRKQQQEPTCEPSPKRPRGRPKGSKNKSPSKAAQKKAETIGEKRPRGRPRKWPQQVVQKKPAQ
Kind of data set: SEC; CTP-TMR incubated with HMGA2Δ95–108 for 30 minutes at 24°C, resolved on Sephacryl S-100 HR (1×50 cm) in BPES buffer; OD556 and SDS-PAGE of fractions. To be noted: both partners purified. On the technique in general: Size exclusion chromatography separates by hydrodynamic size, large species first.

Data set [1] concerns the molecule itself. Kind of data set: cross-linking; EDC (2 mM, zero-length) in MES buffer (10 mM MES, pH 5.5, 50 mM NaCl), 2 hours at 24°C; 29-116 μM protein; 15% SDS-PAGE, Coomassie.
Data set [2] deals with the molecule itself. Put plainly: cross-linking; EDC cross-linking of the cysteineless mutant; data not shown.
Data set [3] deals with the molecule itself. Put plainly: FRET or BRET; 20 nM HMGA2-FM titrated with HMGA2-TMR in 50 mM Tris-HCl (pH 8.0), 200 mM NaCl; excitation 492 nm, read at 518 nm.

No end group written: not given here. TMR = tetramethylrhodamine-5-maleimide

B1: C-terminal peptide (CTP) of HMGA2 labeled with tetramethylrhodamine-5-maleimide (CTP-TMR) (peptide)
peptide: C(TMR)ETEETSSQESAEED
notes: first residue of the printed peptide H-CETEETSSQESAEED-OH; the cysteine that carries the label; the negatively charged C-terminus of HMGA2, mouse; 14 residues; also called the C-terminal peptide; source: synthetic peptide (custom-synthesized by Advanced ChemTech, Inc.), labeled with TMR, purified on SP-sepharose
B1: the binding result with HMGA2Δ95–108 was “binds”.

B2: mammalian high mobility group protein AT-hook 2 (HMGA2) (natural protein, mouse, UniProt P52927 1-108, looked up)
chain: MSARGEGAGQPSTSAQGQPAAPVPQKRGRGRPRKQQQEPTCEPSPKRPRGRPKGSKNKSPSKAAQKKAETIGEKRPRGRPRKWPQQVVQKKPAQETEETSSQESAEED
notes: also called mouse HMGA2; recombinant HMGA2; source: recombinant, purified as described previously [26]
Broadly, the stoichiometry N is a count of units in the complex or per binding partner. As to B2, the “stoichiometry N” value in data set [1] was found to be 2.

B3: HMGA2C41G (natural protein, mouse, UniProt P52927 1-108, looked up)
chain: MSARGEGAGQPSTSAQGQPAAPVPQKRGRGRPRKQQQEPTGEPSPKRPRGRPKGSKNKSPSKAAQKKAETIGEKRPRGRPRKWPQQVVQKKPAQETEETSSQESAEED
notes: also called cysteineless mutant protein; source: made by PCR-based site directed mutagenesis, purified as described previously [26]
Regarding B3, the “stoichiometry N” value in data set [2] came out at 2.

B4: HMGA2 labeled with fluorescein-5-maleimide (HMGA2-FM) or tetramethylrhodamine-5-maleimide (HMGA2-TMR) (natural protein, mouse, UniProt P52927 1-108, looked up)
chain: MSARGEGAGQPSTSAQGQPAAPVPQKRGRGRPRKQQQEPTCEPSPKRPRGRPKGSKNKSPSKAAQKKAETIGEKRPRGRPRKWPQQVVQKKPAQETEETSSQESAEED
modifications: fluorescein-5-maleimide (FM) or tetramethylrhodamine-5-maleimide (TMR) on the cysteine residue
notes: labeled at its one cysteine residue; also called HMG-TMR; source: recombinant HMGA2, labeled with TMR or FM, purified (Sephadex G-50 spin columns, dialysis)
With B4, in data set [3], the “stoichiometry N” value came out at 2.
